The values that follow are results of earlier work, collected in PMC8799529.

The data set concerns the target p38 MAPK (Homo sapiens) (UniProt Q16539).
UniProt Q16539, sequence (Q16539 2-360): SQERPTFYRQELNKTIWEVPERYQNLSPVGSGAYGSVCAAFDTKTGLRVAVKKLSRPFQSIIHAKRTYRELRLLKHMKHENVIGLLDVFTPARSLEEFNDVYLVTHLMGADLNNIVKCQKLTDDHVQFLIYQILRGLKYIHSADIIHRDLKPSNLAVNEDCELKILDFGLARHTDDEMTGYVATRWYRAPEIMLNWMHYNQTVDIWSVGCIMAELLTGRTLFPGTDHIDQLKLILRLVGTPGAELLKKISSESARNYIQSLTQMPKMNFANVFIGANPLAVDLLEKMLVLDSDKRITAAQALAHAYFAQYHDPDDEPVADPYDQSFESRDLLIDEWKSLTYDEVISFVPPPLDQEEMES

As for MK2 (from UniProt P49137), the dissociation constant (Kd) is 2.5 nM.
